For 1 protein, Km results are on record in publication PMC5023282, “A rapid fluorometric assay for the S-malonyltransacylase FabD and other sulfhydryl utilizing enzymes” (Journal of Biological Methods, 2016).

Substrate in the data set: CC(=O)SCCNC(=O)CCNC(=O)[C@H](O)C(C)(C)COP(=O)(O)OP(=O)(O)OC[C@H]1O[C@@H](n2cnc3c(N)ncnc32)[C@H](O)[C@@H]1OP(=O)(O)O
Put plainly: CPM fluorescence detection of released CoA-SH, initial rates. It counts as biochemical, Escherichia coli. The conditions noted are these: malonyl-ACP 80 µM (about 40% pure; table note 75 µM), 20 mM phosphate, 50 mM KCl, 1 mg/ml BSA, pH 7.0, 30°C. The source says:
CPM fluorescence detection of released CoA-SH, initial rates on FabH (β-ketoacyl-ACP synthase III; keto-acylsynthase III)

B1: FabH (β-ketoacyl-ACP synthase III; keto-acylsynthase III) (Escherichia coli K-12) (protein)
chain: MYTKIIGTGSYLPEQVRTNADLEKMVDTSDEWIVTRTGIRERHIAAPNETVSTMGFEAATRAIEMAGIEKDQIGLIVVATTSATHAFPSAACQIQSMLGIKGCPAFDVAAACAGFTYALSVADQYVKSGAVKYALVVGSDVLARTCDPTDRGTIIIFGDGAGAAVLAASEEPGIISTHLHADGSYGELLTLPNADRVNPENSIHLTMAGNEVFKVAVTELAHIVDETLAANNLDRSQLDWLVPHQANLRIISATAKKLGMSMDNVVVTLDRHGNTSAASVPCALDEAVRDGRIKPGQLVLLEAFGGGFTWGSALVRF
notes: purified by anion exchange, blue sepharose and S200 columns, as described previously; no tag mentioned
For B1, the Km was found to be 60 ± 20 µM.
